The record followed here is PMC9061725, “GGDEF domain as spatial on-switch for a phosphodiesterase by interaction with landmark protein HubP” (NPJ Biofilms and Microbiomes, 2022).

Numbering of substitutions follows the chain as printed. In names and notes the source's numbering stands.

Sequences and labels used below:
T1: MshE (Shewanella putrefaciens, UniProt A0ABX8XDM4)
T1 construct: gene tadA; full-length, His-tag purified from E. coli BL21(DE3); strain inferred from locus prefix Sputcn32
T1 sequence (A0ABX8XDM4 1-586): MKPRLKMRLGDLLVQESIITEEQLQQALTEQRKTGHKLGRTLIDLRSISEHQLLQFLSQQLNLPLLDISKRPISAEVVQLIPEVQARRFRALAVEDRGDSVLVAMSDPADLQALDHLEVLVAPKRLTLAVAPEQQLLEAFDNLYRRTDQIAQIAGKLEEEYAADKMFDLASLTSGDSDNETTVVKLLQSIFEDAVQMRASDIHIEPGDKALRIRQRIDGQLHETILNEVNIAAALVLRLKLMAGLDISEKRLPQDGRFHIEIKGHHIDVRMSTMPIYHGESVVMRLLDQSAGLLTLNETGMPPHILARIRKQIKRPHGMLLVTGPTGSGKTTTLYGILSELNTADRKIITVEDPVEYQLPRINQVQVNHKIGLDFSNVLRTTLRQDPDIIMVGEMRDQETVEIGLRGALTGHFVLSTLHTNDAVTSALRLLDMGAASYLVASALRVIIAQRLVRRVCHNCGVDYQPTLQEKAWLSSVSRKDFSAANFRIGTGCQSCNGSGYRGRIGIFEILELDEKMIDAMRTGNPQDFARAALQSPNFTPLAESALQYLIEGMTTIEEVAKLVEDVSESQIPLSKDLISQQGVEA

T2: FimV domain of S. oneidensis HubP (S. oneidensis, biotinylated with EZ-Link NHS-PEG4-biotin (for the BLI assay only))
T2 chain: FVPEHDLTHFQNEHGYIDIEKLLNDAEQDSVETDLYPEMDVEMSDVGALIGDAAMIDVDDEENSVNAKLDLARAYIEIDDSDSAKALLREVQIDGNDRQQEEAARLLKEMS

T3: SoGGDEF_(PdeB) Q525S (S. oneidensis, UniProt Q8EJM6 454-587, Q525S)
T3 sequence: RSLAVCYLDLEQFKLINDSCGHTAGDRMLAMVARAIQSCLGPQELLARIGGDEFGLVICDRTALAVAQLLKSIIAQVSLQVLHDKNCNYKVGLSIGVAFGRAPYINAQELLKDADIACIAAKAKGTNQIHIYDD

T4: SoGGDEF_(PdeB) G494A (S. oneidensis, UniProt Q8EJM6 454-587, G494A)
T4 sequence: T3 sequence with G41A, S72Q

T5: SoGGDEF_(PdeB) E497S (S. oneidensis, UniProt Q8EJM6 454-587, E497S)
T5 sequence: T3 sequence with E44S, S72Q

T6: SoGGDEF_(PdeB) K575S (S. oneidensis, UniProt Q8EJM6 454-587, K575S)
T6 sequence: T3 sequence with S72Q, K122S

T7: SoGGDEF_(PdeB) K577S (S. oneidensis, UniProt Q8EJM6 454-587, K577S)
T7 sequence: T3 sequence with S72Q, K124S

B1: MBP-GGDEF_(SoPdeB), GGDEF domain of S. oneidensis PdeB, wild type (domain or fragment, UniProt Q8EJM6 454-587, looked up)
chain: T3 sequence with S72Q
notes: GGDEF (diguanylate cyclase) domain of the phosphodiesterase PdeB of Shewanella oneidensis; construct limits may stand there; The MBP tag is named for SEC, iSCAMS and pull-down; also called SoGGDEF; SoGGDEF_(PdeB); source: E. coli BL21(DE3), pET24c, purified (His Trap, SEC)
B2: SoGGDEF_(PdeB) K577S (domain or fragment, S. oneidensis, UniProt Q8EJM6 454-587, looked up)
chain: T3 sequence with S72Q, K124S
notes: GGDEF domain of PdeB of Shewanella oneidensis with K577S; Variant of m1; the methods of the pull-down call the GGDEF variants MBP-tagged; source: E. coli BL21(DE3), pET24c, purified (His Trap, SEC)
B3: SoGGDEF_(PdeB) K575S (domain or fragment, S. oneidensis, UniProt Q8EJM6 454-587, looked up)
chain: T3 sequence with S72Q, K122S
notes: GGDEF domain of PdeB of Shewanella oneidensis with K575S; Variant of m1; the methods of the pull-down call the GGDEF variants MBP-tagged; source: E. coli BL21(DE3), pET24c, purified (His Trap, SEC)
B4: FimV domain of S. oneidensis HubP (domain or fragment)
chain: T2 chain
modifications: biotinylated with EZ-Link NHS-PEG4-biotin (for the BLI assay only)

Assay [1] deals with FimV domain of S. putrefaciens HubP (S. putrefaciens).
Assay [2] concerns the target T8, MshE-N (Shewanella putrefaciens, UniProt A0ABX8XDM4).
T8 construct: gene tadA; N-terminal domain aa 2-145, His-tag purified from E. coli BL21(DE3); strain inferred from locus prefix Sputcn32
Briefly: isothermal titration calorimetry. As to conditions: 25 °C; one set of binding sites; value only in figure; read-out: dissociation constant. The text has this:
isothermal titration calorimetry on MshE-N | both MshE and MshE-N bind c-di-GMP with high affinity

The target in assay [3] is T1, MshE. Briefly: isothermal titration calorimetry. The conditions noted are these: 25 °C; one set of binding sites; value only in figure; read-out: dissociation constant. The text has this: isothermal titration calorimetry on MshE | both MshE and MshE-N bind c-di-GMP with high affinity
(ITC needs no label: the signal is the heat of the interaction.)

Assay [4] concerns the target T2, FimV domain of S. oneidensis HubP. Briefly: interferometric scattering mass spectrometry (iSCAMS, mass photometry); MBP-GGDEF_(SoPdeB)/FimV_(HubP) complex, samples prepared at 1 µM, low-salt HEPES buffer (20 mM HEPES, 50 mM NaCl, 50 mM KCl, 5 mM MgCl2, pH 7.5), room temperature. As to conditions: both partners purified.
Assay [5] shares this target. Briefly: BLI; biotinylated SoFimV held on streptavidin biosensors (BLITZ), SoGGDEF variants as analyte; medium salt HEPES buffer pH 7.5 for association only, high-salt Tris buffer pH 8 for association-dissociation. The conditions noted are these: both partners purified.
For assay [6], the target named is T3, SoGGDEF_(PdeB) Q525S. Briefly: BLI. (BLI is a label-free optical method that tracks binding on a fibre tip over time.)
Assay [7] addresses T4, SoGGDEF_(PdeB) G494A. Briefly: BLI.
Assay [8] concerns the target T5, SoGGDEF_(PdeB) E497S. Briefly: BLI.
For assay [9], the target named is T6, SoGGDEF_(PdeB) K575S. Briefly: BLI.
In assay [10] the target is T7, SoGGDEF_(PdeB) K577S. Briefly: BLI.
Assay [11] concerns the target B1. Briefly: BLI; biotinylated SoFimV held on streptavidin biosensors (BLITZ), SoGGDEF variants as analyte; medium salt HEPES buffer pH 7.5 for association only, high-salt Tris buffer pH 8 for association-dissociation. As to conditions: both partners purified.

In [1], “S. putrefaciens PdeB-mVenus K527E/Q528S (natural protein)” registered a single-molecule tracking of PdeB-mVenus K527E/Q528S in S. putrefaciens cells: share of static molecules of 61%.

As for `Nc1nc2c(ncn2[C@@H]2O[C@@H]3CO[P@](=O)(O)O[C@H]4[C@@H](O)[C@H](n5cnc6c(=O)[nH]c(N)nc65)O[C@@H]4CO[P@](=O)(O)O[C@H]3[C@H]2O)c(=O)[nH]1` [c-di-GMP], the Kd in [2] came to 4 µM; in [3], 9 µM.

With “MBP-GGDEF_(PdeB), GGDEF domain of S. putrefaciens PdeB (domain or fragment)”, the single-molecule tracking of PdeB-mVenus in S. putrefaciens cells: share of molecules statically confined to the cell pole in [1] is 84%. For B1, the “stoichiometry N” value in assay [4] was ~1 GGDEF per FimV (2:2).

Take B2: in assay [5], the “fold increase of KD against the wild type” value stood at 10 fold. On the same count and under the same terms, in the case of B3 it was 100 fold.

As to B4, the Kd in assay [6] is 0.592 µM; in assay [7], 0.835 µM; in assay [8] it was 0.299 µM; in assay [9] it was 22 µM; in assay [10], 2.72 µM; in [11], approximately 0.2 µM.

The term stoichiometry N denotes the number of molecules, sites or subunits per partner or assembly.
